Results reported in patent US5981483A, “Compositions comprising modulators of cytokines of the TGF-β superfamily” (Mount Sinai Hospital Corporation, priority 1997, dated 1999).
Where a SMILES comes first, the peptide text is derived from it. Bridges are numbered along the chain shown (N, C = ends). The star is where a group is joined. Cam = NC(=O)C*

How the values were obtained:
TGF-β1 [1] = target: T1, TGF-β1 (Homo sapiens, UniProt P01137); assay: BIAcore surface plasmon resonance, binding to immobilized TGF-β1; settings: for kass: ligand TGF-β1
T1 construct: The mature processed cytokines produced from the members of the gene family show almost 100% amino acid identity between species; purchased Collaborative Research (Bedford, Mass.)
T1 sequence (P01137 279-390 limits assumed): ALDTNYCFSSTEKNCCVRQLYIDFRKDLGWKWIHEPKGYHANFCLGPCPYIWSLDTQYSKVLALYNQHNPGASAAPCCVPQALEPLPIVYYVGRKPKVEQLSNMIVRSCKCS
Experimental: (§1) In this system, a purified protein serving as the ligand is covalently coupled to a carboxymethylated dextran surface, and binding molecules (i.e. the analyte) are passed in a fluid phase across the surface. Binding of the analyte to ligand causes a change in reflected light which is directly proportional to mass bound, and is measured in arbitrary response units (R.U.). Analyte-ligand binding is observed as both increasing response with time during the injection of analyte, and the difference in the position of the baseline before and after injection.
(§2) Schuster, R. V. Swanson, L. A. Alex, R. B. Bourret, M. I. Simon, Nature 365, 343 (1993). 1000 R.U. equals approximately 1 ng/mm^2. The running buffer was 20 mM Hepes (pH 7.2), 150 mM NaCl and the flow rate for all sensorgrams was 3 μl/min.
(§3) Regeneration of the surface to remove bound analyte was done by injection of 10 μl of 20 mM NaOH. To cyclize TRH1 peptides, the material was reduced with 5 mM DTT then brought to a final concentration of 60 μM in 25 mM ammonium acetate (pH 8.5). After stirring in the dark for 30 min at 20° C. with 30 mM potassium ferricyanide, the peptide was mixed with AG3-X4A resin (BioRad), filtered, lyophilization and desalted on a 50×2.5 cm column of Biogel P2 (Pharmacia) developed in water, and further purified by reverse phase HPLC.
(§4) Injection volumes were 36 μl for FIG. 2, 4 and 5 and 45 μl for FIG. 3. […] Protein concentrations in each experiment were (FIGS. 2 and 3), 2, 5, 10, 20, 30, 40 μM; (FIG. 4), 0.21, 0.31, 0.41, 0.62, 0.82, 1.24 μM; (FIG. 5), 0.22, 0.29, 0.44, 0.59, 0.88 μM. R.U. for the immobilized cytokine in each experiment was 2850 R.U. for FIGS. 2 and 3; 7450 R.U. for FIG. 4, and 5300 R.U., for FIG. 5 respectively.
(§5) Data was analyzed using the BIA-evaluation software (Pharmacia Biosensor). The association rate constant, kass, was calculated by first plotting the change in response with time versus response (i.e. dR/dT vs R). When the slope of the line from this graph is plotted versus analyte concentration (i.e d(dR/dT)/dR vs C), kass is obtained from the slope of the line. The dissociation rate constant, kdiss, is obtained during the decrease in response with time after analyte injection is discontinued. Specifically, kdiss was obtained from the slope of the line in a plot of ln(Rt1 /Rtn) vs time. The affinity constants were calculated from KD =kdiss /kass. Variance for kass is standard error of the linear regression plot, and for kdiss values are the mean ± range of 3 or more independent injections.

[2] = tested on: rat bone marrow stromal cells; assay: Dexamethasone-treated rat bone marrow stromal cell cultures (proliferation, mineralization, TGF-β levels); assay type: cell-based; settings: dexamethasone 10^-8 M, FIG. 17
Experimental: The methods used in the studies described in this example and illustrated in FIGS. 16 and 17 are as follows. Femoral bones were removed under aseptic conditions from adult male Wistar rats (120 g), cleaned of adherent soft tissues, and washed extensively in antibiotics. The distal ends were removed and the marrow contents were flushed out with 10 ml of culture medium. The cells were dispersed by repeated passage through a 20 gauge needle and incubated in alpha-MEM supplemented with 15% fetal bovine serum, ascorbic acid (50 μg/ml), antibiotics (penicillin G 100 μg/ml, gentamicin 50 μg/ml, fungizone 0.3 μg/ml) and 10 mM β-glycerophosphate. […] Following 6 days of culture at 37° C. in a humidified atmosphere containing 5% CO2 in air, the cells were re-plated at a density of 1×10^2 cell/mm^2 in 96 multi-well plates (Falcon 3047), and grown for another 12-14 days. At the end of culture, the cells were fixed and stained for calcium with alizarin red-s for quantification of bone nodule area (reported as mineralized area (mm^2)/well). To assess mineralized tissue formation in the cultures morphometric measurements were carried out with the aid of a Bioquant IV system (Bioquant, Nashville, Tenn., U.S.A.) using a Leitz Orthoplan microscope. TGF-β in culture supernatants taken 4 days prior to scoring mineralization were measured with and without heat activation (80° C. for 10 min) using the Mink cells as the indicator cell line as described in FIG. 12.

TGF-β1 [3] = target: T1, TGF-β1; assay: 3H-Thymidine incorporation in Mv1Lu cells: neutralization of the antiproliferative activity of TGF-β1; assay type: cell-based
Experimental: Mv1Lu cells were seeded at 20,000 cells/well in a 96 well plate containing 0.2% FCS in α-MEM and incubated with the indicated concentrations of proteins for 18 hr. The cells were then pulsed with 8 μCi/ml methyl-^3 H-thymidine (NEN, Boston, Mass.) for 6 hr. Cells were trypsinized, harvested onto filtermats and counted in a β-Counter. Percent neutralization is defined as incorporation in the presence of 12 pM TGF-β1 alone set at 0%, and incorporation without additions as 100%. The difference in ^3 H-thymidine incorporation between 0% and 100% was 7.5 fold. Each point in FIG. 1 and FIG. 12 represents the mean of duplicate determinations, and the results are representative of three experiments. […] Before use, bovine thyroglobulin was spun twice in a centricon (M.W. cutoff of 10,000 Da) micro-concentrator (Amicon, Beverly, Mass.) to remove any excess Iodine and T3/T4 thyroid hormones.

TGF-β2 = target: T2, TGF-β2 (Homo sapiens, UniProt P61812); assay: BIAcore surface plasmon resonance, binding to immobilized TGF-β2; settings: Table 1; ligand TGF-β2
T2 construct: The mature processed cytokines produced from the members of the gene family show almost 100% amino acid identity between species
T2 sequence (P61812 303-414 limits assumed): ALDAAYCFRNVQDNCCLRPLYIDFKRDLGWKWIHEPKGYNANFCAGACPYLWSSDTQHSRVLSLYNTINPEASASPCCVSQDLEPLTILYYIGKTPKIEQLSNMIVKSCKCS
Experimental: as §1, §2, §3
as §5, with “Variance for kass is standard error of the linear regression plot, and for kdiss values are the mean ± range of 3 or more independent injections.” left out

BMP-2 = target: T3, BMP-2 (Homo sapiens, UniProt P12643); assay: BIAcore surface plasmon resonance, binding to immobilized BMP-2; settings: for kass: ligand BMP-2
T3 construct: Genetics Institute, Cambridge, Mass; (gift)
T3 sequence (P12643 283-396): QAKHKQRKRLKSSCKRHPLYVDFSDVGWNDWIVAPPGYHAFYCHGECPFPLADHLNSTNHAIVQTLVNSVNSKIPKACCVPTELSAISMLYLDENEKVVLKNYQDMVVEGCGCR
Experimental: as §1, §2, §3, §4, §5

BMP-4 = target: T4, BMP-4 (Homo sapiens, UniProt P12644); assay: BIAcore surface plasmon resonance, binding to immobilized BMP-4; settings: Table 1; ligand BMP-4
T4 sequence (P12644 293-408): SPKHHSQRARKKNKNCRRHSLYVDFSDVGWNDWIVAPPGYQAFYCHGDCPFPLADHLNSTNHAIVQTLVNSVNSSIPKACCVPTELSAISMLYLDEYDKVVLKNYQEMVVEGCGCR
Experimental: as §1, §2
Regeneration of the surface to remove bound analyte was done by injection of 10 μl of 20 mM NaOH. To cyclize TRH1 peptides, the material was reduced with 5 mM DTT then brought to a final concentration of 60 μM in 25 mM ammonium acetate (pH 8.5). […]
Data was analyzed using the BIA-evaluation software (Pharmacia Biosensor). The association rate constant, kass, was calculated by first plotting the change in response with time versus response (i.e. dR/dT vs R). […] The affinity constants were calculated from KD =kdiss /kass. […]

TGF-β1 binding to TβRII = target: T5, TGF-β1 binding to TβRII (Homo sapiens, UniProt P01137); assay: Competition of TGF-β1 binding to immobilized TβRII (Quantikine ELISA); settings: 40 pM TGF-β1; fetuin 40 μM, TRH1 peptide from TβRII 20 μM; FIG. 14
T5 construct: The mature processed cytokines produced from the members of the gene family show almost 100% amino acid identity between species; purchased R&D Systems
T5 sequence (P01137 279-390 limits assumed): as the sequence (P01137 279-390 limits assumed) above
Experimental: Inhibition of TGF-β1 binding to TβRII was carried out using the Quantikine ELISA kit (R&D Systems). In particular, 96 well plates were pre-coated with the extracellular domain of TβRII. […] This was followed by a 5 minute incubation with the TβRII coated ELISA wells with shaking, washing as recommended, and a 1 hr incubation with the polyclonal anti-TGF-β1 antibody. Plates were developed as per the instructions, and determinations were made in triplicate.

[4] = Table 2 (calculations repeated)

**Q.** Which “binding to immobilized TGF-β1 (in words)” value (TGF-β1 [1]) does the source give for “human transferrin: non-binding control protein [reference compound]” here?
**A.** non-binding

**Q.** C[C@@H]1C[C@H]2[C@@H]3CCC4=CC(=O)C=C[C@]4(C)[C@@]3(F)[C@@H](O)C[C@]2(C)[C@@]1(O)C(=O)CO [Dexamethasone, dexamethasone, reference compound] was tested. Which “increase of the fraction of active TGF-β in the cultures” value [2] did it give?
**A.** 3 fold

**Q.** “Thyroglobulin: Bovine thyroglobulin (Sigma), contains the TRH1 domain” was tested. Which “Maximal effect, percent neutralization” value (TGF-β1 [3]; 12 pM TGF-β1, FIG. 1) did it give?
**A.** approximately 150%

**Q.** And the “IC50 for inhibition of TGF-β1 activity, fold lower than for fetuin” value (TGF-β1 [3]; FIG. 1)?
**A.** 20 fold

**Q.** What about the kass (TGF-β2) of the same compound?
**A.** 1300 ± 600 M⁻¹ s⁻¹

**Q.** What about the kass (BMP-2; Table 1) of the same compound?
**A.** 32000 ± 2000 M⁻¹ s⁻¹

**Q.** And the kass (BMP-4)?
**A.** 54000 ± 7000 M⁻¹ s⁻¹

**Q.** Which kass (BMP-2; [4]) does the source give for CC[C@H](C)[C@@H]1NC(=O)[C@H](CC(=O)O)NC(=O)[C@@H](N)CSSC[C@@H](C(=O)O)NC(=O)[C@H](CCCCN)NC(=O)[C@H]([C@@H](C)O)NC(=O)[C@H](Cc2ccccc2)NC(=O)[C@H](CC(C)C)NC(=O)[C@H](C(C)C)NC(=O)[C@H](CO)NC(=O)[C@H](Cc2ccccc2)NC(=O)[C@H](CCC(N)=O)NC(=O)CNC(=O)[C@H](CC(=O)O)NC(=O)[C@H](CCC(N)=O)NC(=O)[C@H](CCCCN)NC(=O)[C@H](CC(C)C)NC(=O)[C@H](C(C)C)NC(=O)[C@H](Cc2c[nH]cn2)NC1=O [TRH1b (fetuin)] (H-CDIHVLKQDGQFSVLFTKC-OH; disulfide 1-19; N-terminus and C-terminus assumed) here?
**A.** 1300 ± 500 M⁻¹ s⁻¹

**Q.** And the “Competition of fetuin-BMP-2 binding” value (BMP-2; co-injected with fetuin, data not shown, listed as fetuin TRH1b peptide)?
**A.** competed for fetuin-BMP-2 binding in a dose dependent manner

**Q.** With CC[C@H](C)[C@H](NC(=O)[C@H](CC(=O)O)NC(=O)[C@@H](N)CSCC(N)=O)C(=O)N[C@@H](Cc1c[nH]cn1)C(=O)N[C@H](C(=O)N[C@@H](CC(C)C)C(=O)N[C@@H](CCCCN)C(=O)N[C@@H](CCC(N)=O)C(=O)N[C@@H](CC(=O)O)C(=O)NCC(=O)N[C@@H](CCC(N)=O)C(=O)N[C@@H](Cc1ccccc1)C(=O)N[C@@H](CO)C(=O)N[C@H](C(=O)N[C@@H](CC(C)C)C(=O)N[C@@H](Cc1ccccc1)C(=O)N[C@H](C(=O)N[C@@H](CCCCN)C(=O)N[C@@H](CSCC(N)=O)C(=O)O)[C@@H](C)O)C(C)C)C(C)C [TRH1b (fetuin) (reduced & alkylated)] (H-C(Cam)DIHVLKQDGQFSVLFTKC(Cam)-OH; N-terminus and C-terminus assumed) as the compound, how does the “binding to immobilized BMP-2 (in words)” value (BMP-2) read?
**A.** no significant binding

**Q.** For CC[C@H](C)[C@@H]1NC(=O)[C@H](CC(N)=O)NC(=O)[C@H](CCC(=O)O)NC(=O)[C@H](CC(=O)O)NC(=O)[C@H](CC(N)=O)NC(=O)[C@H](CCCCN)NC(=O)[C@H](CCCNC(=N)N)NC(=O)[C@H](Cc2c[nH]c3ccccc23)NC(=O)[C@H](C(C)C)NC(=O)[C@H](C)NC(=O)[C@H](C(C)C)NC(=O)[C@@H](N)CSSC[C@@H](C(=O)O)NC(=O)[C@H](C(C)C)NC(=O)[C@H]([C@@H](C)O)NC(=O)[C@H](CCC(=O)O)NC(=O)[C@H](CC(C)C)NC(=O)[C@H]([C@@H](C)O)NC1=O [TRH1b (TβRII)], which kass (TGF-β1 [1]; Table 1) is on record?
**A.** 3700 ± 2900 M⁻¹ s⁻¹

**Q.** And the kass (TGF-β1 [1]; [4])?
**A.** 2200 ± 1300 M⁻¹ s⁻¹

**Q.** What about the “inhibition of TGF-β1 binding to immobilized recombinant TβRII” value (TGF-β1 binding to TβRII) of the same compound?
**A.** competitive inhibitors

**Q.** How did the “binding to immobilized TGF-β1 (in words)” value (TGF-β1 [1]) turn out when “reduced and alkylated fetuin: fetuin, reduced and alkylated” was run?
**A.** diminished binding

**Q.** And the “binding to immobilized BMP-2 (in words)” value (BMP-2)?
**A.** diminished binding
